Consider 1 substance from patent US20030211469A1, “Inhibiting hepatitis c virus processing and replication” (priority 2003, published 2003).

In the test the target is NS2/3 (810-1615BK): HCV residues 810-1615 of the BK strain, all of NS2 and most of NS3 (Hepatitis C virus, BK strain) (UniProt P26663). Kind of test: co-immunoprecipitation with anti-HSP90 mAb 3G3; NS2/3 synthesized in reticulocyte lysate with or without 10 µM geldanamycin (small molecule).
Chain of UniProt P26663 (P26663 810-1615): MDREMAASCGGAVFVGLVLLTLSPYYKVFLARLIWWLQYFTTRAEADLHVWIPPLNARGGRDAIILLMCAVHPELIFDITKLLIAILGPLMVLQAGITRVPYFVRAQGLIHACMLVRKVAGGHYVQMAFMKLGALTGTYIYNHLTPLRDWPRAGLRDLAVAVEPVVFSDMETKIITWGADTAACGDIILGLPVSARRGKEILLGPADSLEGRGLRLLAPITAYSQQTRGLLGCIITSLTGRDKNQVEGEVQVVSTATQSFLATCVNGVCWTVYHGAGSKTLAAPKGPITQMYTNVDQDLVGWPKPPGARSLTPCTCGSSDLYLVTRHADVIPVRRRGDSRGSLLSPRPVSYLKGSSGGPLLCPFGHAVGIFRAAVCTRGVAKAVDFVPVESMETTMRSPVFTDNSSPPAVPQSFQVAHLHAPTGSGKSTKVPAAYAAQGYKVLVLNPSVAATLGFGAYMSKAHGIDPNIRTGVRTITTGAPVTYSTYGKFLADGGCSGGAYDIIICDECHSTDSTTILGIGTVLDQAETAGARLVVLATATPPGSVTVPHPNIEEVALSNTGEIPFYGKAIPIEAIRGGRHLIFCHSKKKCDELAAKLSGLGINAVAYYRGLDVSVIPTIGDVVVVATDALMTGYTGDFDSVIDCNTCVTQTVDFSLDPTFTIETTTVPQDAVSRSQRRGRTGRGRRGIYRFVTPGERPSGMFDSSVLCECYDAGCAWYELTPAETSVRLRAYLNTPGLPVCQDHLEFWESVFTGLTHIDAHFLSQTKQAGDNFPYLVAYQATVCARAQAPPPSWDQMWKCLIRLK

Turning to “heat shock protein 90 (HSP90) (from UniProt P30947 2-726)”, the decrease of the amount of NS2/3 co-immunoprecipitated in the presence of 10 µM geldanamycin was 60%.
